Data on one substance can be found in US5861377.

The target of experiment [1] is chymotrypsin (inhibition assay used during purification).
Experiment [2] deals with trypsin (inhibition assay used during purification).

On to hirustasin (Hirudo antistasin), for which, in experiment [1], the specific activity (SA) of chymotrypsin inhibition, Mono S pool is 0.15 IU/mg. In experiment [2], this substance returned a specific activity (SA) of trypsin inhibition, Mono S pool of 2.7 IU/mg.
